Source: paper PMC6942403, “RNA sequencing reveals an additional Crz1-binding motif in promoters of its target genes in the human fungal pathogen Candida albicans”

T1: His6-CaCrz1 (Candida albicans, UniProt Q5A4H5 1-731)
T1 sequence: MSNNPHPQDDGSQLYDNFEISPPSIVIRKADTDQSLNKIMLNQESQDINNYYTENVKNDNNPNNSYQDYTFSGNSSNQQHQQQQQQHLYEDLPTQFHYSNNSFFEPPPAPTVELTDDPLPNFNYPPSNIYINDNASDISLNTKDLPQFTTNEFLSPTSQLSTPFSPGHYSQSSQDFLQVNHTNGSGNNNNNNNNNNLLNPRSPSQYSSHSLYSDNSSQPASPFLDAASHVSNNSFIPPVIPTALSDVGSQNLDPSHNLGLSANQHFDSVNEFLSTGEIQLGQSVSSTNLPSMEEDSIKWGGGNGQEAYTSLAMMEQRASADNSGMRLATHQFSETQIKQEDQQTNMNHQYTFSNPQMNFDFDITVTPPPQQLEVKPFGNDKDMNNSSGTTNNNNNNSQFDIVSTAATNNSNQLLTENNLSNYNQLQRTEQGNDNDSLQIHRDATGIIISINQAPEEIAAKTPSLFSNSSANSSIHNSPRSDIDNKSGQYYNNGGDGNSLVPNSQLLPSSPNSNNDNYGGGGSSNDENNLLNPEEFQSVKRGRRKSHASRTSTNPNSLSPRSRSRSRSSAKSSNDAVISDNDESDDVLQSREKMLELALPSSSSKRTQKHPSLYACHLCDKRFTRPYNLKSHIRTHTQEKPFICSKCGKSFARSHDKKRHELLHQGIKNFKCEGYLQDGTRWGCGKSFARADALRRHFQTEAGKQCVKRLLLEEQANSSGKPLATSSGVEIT


Tests used:
His6-CaCrz1 [1] = target: T1, His6-CaCrz1; test: EMSA; 1 ug protein; abolished by unlabelled Probe 2; EMSA with DIG-labelled probes and 1 ug His6-Crz1; buffer, salt, pH and temperature not given in the material; settings: protein: recombinant; tags: N-terminal His6 (pET28a(+)); label: DIG
His6-CaCrz1 [2] = target: T1, His6-CaCrz1; test: EMSA; 1 ug protein; EMSA with DIG-labelled probes and 1 ug His6-Crz1; buffer, salt, pH and temperature not given in the material; settings: protein: recombinant; tags: N-terminal His6 (pET28a(+)); label: DIG; blunt
His6-CaCrz1 [3] = target: T1, His6-CaCrz1; test: EMSA; 1 ug protein; abolished by unlabelled Probe 1; EMSA with DIG-labelled probes and 1 ug His6-Crz1; buffer, salt, pH and temperature not given in the material; settings: protein: recombinant, tags: N-terminal His6 (pET28a(+)), label: DIG

Binder	binding result (His6-CaCrz1 [2])	also measured
UTR2 Probe 2 EMSA_UTR2_F/R(M) (dsDNA) DNA 1: GGCTTAAATTCTTGAGTTGTGGGCTTTGAATTTCTTTCATTTCAT DNA 2: ATGAAATGAAAGAAATTCAAAGCCCACAACTCAAGAATTTAAGCC	–	binding result (His6-CaCrz1 [1]): binds
CRZ1 Probe 2 (dsDNA) DNA 1: ATTAGAATAGAATATTATCACAGACCCCCCCAATATCTATTTATCAACCT DNA 2: AGGTTGATAAATAGATATTGGGGGGGTCTGTGATAATATTCTATTCTAAT	no binding	–
CRZ1 Probe 1 (dsDNA) DNA 1: TGTGTGTGTGTGTGACAGTCCAGTCCCTCAACTAATTTAAAACAGTTTTT DNA 2: AAAAACTGTTTTAAATTAGTTGAGGGACTGGACTGTCACACACACACACA	–	binding result (His6-CaCrz1 [3]; blunt): binds
UTR2 Probe 1 EMSA_UTR2_F/R(H) (dsDNA) DNA 1: CTTTCATTTCATTTCTTTTCTCAACGCCTCAAAATTTGATTCTTAAAATT DNA 2: AATTTTAAGAATCAAATTTTGAGGCGTTGAGAAAAGAAATGAAATGAAAG	–	binding result (His6-CaCrz1 [3]): binds
CRZ1 Probe 4 (dsDNA) DNA 1: AACAATTTAATCTGGTCATTTCATTTCCCCTAACAGCATCTTTCCAAGTT DNA 2: AACTTGGAAAGATGCTGTTAGGGGAAATGAAATGACCAGATTAAATTGTT	no binding	–
CRZ1 Probe 3 (dsDNA) DNA 1: TTTCAACTTCCATCATATTTACCACAATTGGATTAACTTGGTTAT DNA 2: ATAACCAAGTTAATCCAATTGTGGTAAATATGATGGAAGTTGAAA	no binding	–
